The supplement of paper PMC10567573

B1: ZNF263 (parent)
chain: QPKKLHLCPLCGKNFSNNSNLIRH
B2: ZNF449 (parent)
chain: HKKKSPGEKPHRCPQCGKCFARKS

Variants of: B1
Test: protein stability index of a GFP-peptide fusion (GPS, HEK-293T) (PSI 1-6); higher = more stable
Details: c terminus: a fixed tail appended
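Note: lentivirally expressed fusions sorted by FACS into six bins by GFP to DsRed ratio, PSI derived from sequencing read proportions per bin multiplied by bin number.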

Protein stability index of substitutions, site by site:
L10: D 3.78, V 2.96, P 2.62, Q 2.91, H 3.56, M 3.28, N 3.16, Y 2.53, R 3.32, C 4.03, E 3.47, W 2.38, A 2.5, T 2.84, S 4.12, I 2.83, G 2.87, K 3.44, F 3.03
C8: S 2.41, G 2.85, M 3.22, H 2.38, E 3.1, F 2.05, P 2.82, L 1.97, I 2.61, Q 2.71, Y 1.82, D 2.4, N 3, R 2.56, W 1.97, K 2.46, A 2.83, T 3.03, V 3.15
K13: I 1.89, D 1.67, W 1.8, Q 2.11, C 2.47, F 2.51, P 1.82, M 2.69, N 2.77, S 2.41, H 2.62, G 2.24, A 3.12, Y 2.91, T 2.15, L 2.21, V 2, R 2.53, E 2.29
N14: Y 2.57, E 3.52, F 2.69, V 3.04, L 2.84, K 2.94, R 2.35, M 2.83, P 2.61, H 3.06, I 3.33, C 3.93, T 2.97, S 3.48, A 3.29, W 3.51, G 2.63, D 2.08, Q 3.1
L7: E 2.28, W 2.38, S 2.1, G 2.08, K 2.88, F 2.78, Y 3.02, A 2.69, Q 2.85, R 2.72, D 2.1, C 2.3, H 2.46, P 2.07, N 2.18, I 3.56, V 3.04, T 2.74, M 2.59
Q1: S 2.39, E 3.16, M 2.6, A 2.97, D 3.09, T 2.5, I 2.61, P 2.43, H 2.69, K 2.64, Y 2.23, G 2.33, L 2.4, W 2.26, R 2.47, V 2.12, C 2.69, F 2.21, N 2.83
N17: D 2.48, C 2.33, A 2.69, E 2.33, F 2.06
L5: H 2.64, P 2.09, K 2.67, C 2.02, N 2.13, I 2.64, Y 2.18, D 3.25, W 2.74, S 2.39, R 2.37, E 2.64, V 3.02, G 2.54, F 1.81, Q 2.54, T 1.71, M 2.71, A 2.53
P2: D 2.42, V 2.3, M 2.27, A 2.42, G 2.22, H 1.68, L 1.81, Q 2.47, T 2.57, C 2.13, N 2.31, R 2.06, K 2.17, W 2.14, F 2.44, I 2.43, Y 1.89, E 2.59, S 2.53
S16: V 2.05, M 2.96, R 2.17, Q 2.44, G 3.42, C 2.57, F 2.48, Y 2.6, T 2.21, N 2.38, K 2.56, A 2.4, P 2.49, I 2.36, W 2.09, E 2.62, D 2.72, H 2.42, L 2.34
G12: E 2, W 1.94, N 2.45, D 2.11, R 2.34, F 1.39, H 2.4, A 2.27, S 1.99, Q 2.53, T 3.13, M 1.79, K 2.13, P 2.3, V 2.36, Y 2.68, C 2.47, I 2.44, L 2.07
F15: D 2.56, G 1.8, M 1.99, P 2.22, I 2.36, A 2.03, N 2.45, W 1.95, H 3.33, S 2.19, E 2.07, V 1.82, Q 1.89, T 1.95, L 2, Y 2.46, R 2.61, C 2.53, K 2.06
K4: S 3.18, F 2.17, C 2.53, A 2.19, W 2.47, R 1.88, L 2.97, Q 3.03, I 2.85, Y 2.44, H 2.49, G 2.63, N 2.92, V 2.62, D 3, E 3.36, T 2.75, M 2.53, P 2.69
K3: C 2.32, L 2.63, E 2.8, V 2.67, M 2.78, A 2.33, Y 2.05, G 2.65, T 2.17, N 2.83, Q 2.52, R 2.06, H 2.82, F 2.83, S 2.56, P 2.62, W 1.93, I 2.78, D 2.94
P9: Q 2.67, C 2.3, D 2.56, A 2.43, T 2.66, G 2.26, K 2.63, E 2.56, H 2.38, R 2.25, L 2.21, W 2.4, I 1.89, V 2.1, N 2.4, S 2.52, M 2.31, Y 2.61, F 1.93
C11: P 3.36, A 3.13, I 2.16, Q 2.91, K 2.62, W 1.74, D 3.58, S 2.74, M 2.07, F 1.87, H 2.88, R 2.83, V 2.48, L 2.41, T 3.11, Y 1.68, E 3.18, G 2.56, N 2.8
H6: V 2.12, P 2.11, G 2.39, F 2.44, R 2.32, Y 2.88, T 3.08, L 2.19, I 2.05, E 2.38, Q 2.22, D 2.95, N 2.14, C 1.99, K 2.81, W 2.05, M 2.24, A 2.02, S 1.71

Variants of: B2
Test: as above
Details: c terminus: a fixed tail appended

Protein stability index: each site, then its substitutions
P14: V 3.75
G17: F 3.79
E8: K 3.57, N 2.75
K18: F 5.18
S24: W 2
P6: F 3.36
K2: D 2.92, H 3.27
C16: G 4.53, A 4.73
Q15: E 3.38
R12: H 3.59, G 3.1
H1: T 2.88, W 2.7, V 3.15, R 3.53
K3: Y 2.02
F20: E 4.11
C13: K 4.26
P10: Q 3.09
H11: L 3.19
R22: D 3.82, V 3.15
